# Tested on: MS2 coat protein
# Assay: apparent KD of MS2 coat protein; designed switch direction (-1 OFF switch, 1 ON switch): -1; higher = weaker reporter binding
# Procedure, shortened: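 Designed RNA switches sharing common flanks were transcribed on Illumina chips by stalled E. coli RNA polymerase. They were titrated with SNAP-549-labelled MS2 coat protein, from 0.7 or 1.5 nM doubling to 3 µM, in Tris-HCl pH 7.5 buffer with KCl, MgCl2, BSA, DTT, tRNA and Tween-20. Titrations ran without input, with 200 uM small-molecule ligand, or with an oligonucleotide input. The apparent KD of each design is the median over its clusters, after curve-fitting of normalised cluster fluorescence.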
# [1] = input ligand: microRNA oligo, concentration not stated
# [2] = Eterna round: R95, input ligand: microRNA oligo, concentration not stated
# [3] = Eterna round: R95, input ligand: FMN 200 uM
# [4] = Eterna round: R95, input ligand: none
sequence,measurement,setting,value
"GACCUAUAGGUAGGAUAUCAUUGCGAUUAGCUAUGAGAAGGACCACAUGAGGAUCACCCAUGUCCUCCAAUUAACCAUAAGGUC [Fiskers ExNg1 - 5] (Eterna round: R96, puzzle: Exclusion NG 1)",apparent KD of MS2 coat protein,input ligand: FMN 200 uM,98.7 nM
same,apparent KD of MS2 coat protein,[1],34.6 nM
same,apparent KD of MS2 coat protein,input ligand: none,40.9 nM
"CUGGAUAGAGGAUAUUGUACUGCUGACAUGAGGAUCACCCAUGUAUGUUAACUCGGCCGUCGAGAAGGCUAACAAA [BotMod 14 - Jieux - Exclusion 5] (Eterna round: R97, puzzle: Exclusion 5)",apparent KD of MS2 coat protein,input ligand: FMN 200 uM,16.3 nM
same,apparent KD of MS2 coat protein,input ligand: none,33.4 nM
"GCAAUUUCAAAGGAUAUACCUAAUUAACUAUCGGUAGAAGGUUGGACAUGAGGAUCACCCAUGUGCUCACACUU [Eternabot (L2) Solution 67] (Eterna round: R97, puzzle: Exclusion 6)",apparent KD of MS2 coat protein,input ligand: FMN 200 uM,15.9 nM
same,apparent KD of MS2 coat protein,input ligand: none,15.6 nM
CCAGCGUGUGUGAGGAUAUGCUGGUCCUUGGAUCAGCAGAAGGCACAUGAGGAUCACCCAUGUGAGGACGUUGG [JL bmx4 3.32] (puzzle: Brourd's mod of Exclusion 4),apparent KD of MS2 coat protein,[2],19.9 nM
"GAAAACGCAGAGGAUAUUCCAGAUCUAAGCUGCGAAGAAGGCUGCACAUGAGGAUCACCCAUGUGGUCUUUAAA [Maoned] (Eterna round: R96, puzzle: Exclusion 6)",apparent KD of MS2 coat protein,[1],13.7 nM
"UCGUGUCGAGAGGAUAUCUAGGACACCCUUCCAAGAGAAGGCUUGACAUGAGGAUCACCCAUGUACGGGUAAAU [EX6 A.9] (Eterna round: R97, puzzle: Exclusion 6)",apparent KD of MS2 coat protein,input ligand: FMN 200 uM,25.6 nM
same,apparent KD of MS2 coat protein,input ligand: none,39.9 nM
"AGCCAUCGUGUGAGGAUAUCGAUAAGUUCGAGUUUCGAGAAGGCACAUGAGGAUCACCCAUGUCGUGAAAGAAA [BmEX4 A.28] (Eterna round: R97, puzzle: Brourd's mod of Exclusion 4)",apparent KD of MS2 coat protein,input ligand: FMN 200 uM,75.8 nM
same,apparent KD of MS2 coat protein,input ligand: none,244 nM
"GUAUAACAUGAGGAUCACCCAUGUGAGGAUAUGCGAAUUUCAUCAAAAGAUGAAAUUUGCAGAAGGCACAGUAC [Omei Ex1 A12] (Eterna round: R97, puzzle: Exclusion 1)",apparent KD of MS2 coat protein,input ligand: FMN 200 uM,93 nM
same,apparent KD of MS2 coat protein,input ligand: none,66.3 nM
"AAUAACAAGUAAGAUCCUAACAUGAGGAUCACCCAUGUGCUCGUCUUGUAAAGUACUAUCACGAAAGUGAUAGUACA [Sensor 3, v1 - 51] (puzzle: Sensor v3, turn-off variant 1)",apparent KD of MS2 coat protein,[3],48.3 nM
same,apparent KD of MS2 coat protein,[2],295 nM
same,apparent KD of MS2 coat protein,[4],54.7 nM
"UUUUUCUCAGGAUAUACAUGAGGAUCACCCAUGUAUAUUAAUGGUAAUACAUGGGAAUGUAGAAGGGAGCUCAU [Omei Ex3 Pseudoloop 15] (Eterna round: R97, puzzle: Exclusion 3)",apparent KD of MS2 coat protein,input ligand: FMN 200 uM,112 nM
same,apparent KD of MS2 coat protein,input ligand: none,122 nM
"GUUUACAAGCUAAGAUCCUACAUGAGGAUCACCCAUGUGGUCCGGUGACGUGAGUCACCGGACUUAGCUCGUCUUGG [salish99_S_TOV1_R5_090] (Eterna round: R97, puzzle: Sensor, turn-off variant 1)",apparent KD of MS2 coat protein,input ligand: FMN 200 uM,66 nM
same,apparent KD of MS2 coat protein,input ligand: none,66.7 nM
"AAUGAUUGACGAGGAUAUUGUGUUAGAUCACGACGAGAAGGCGUUUGUCACAUGAGGAUCACCCAUGUGAGCCUUGUGGAUAGA [Ex NG1 #76] (Eterna round: R96, puzzle: Exclusion NG 1)",apparent KD of MS2 coat protein,input ligand: FMN 200 uM,56.6 nM
same,apparent KD of MS2 coat protein,[1],15.6 nM
same,apparent KD of MS2 coat protein,input ligand: none,21.5 nM
"GGUCGACAUGAGGAUCACCCAUGUCAGGAUAUCGUCACUGGAGCUUCGGCUCCAGUGACGAGAAGGGAUAUGAU [E1/17-A1] (Eterna round: R97, puzzle: Exclusion 1)",apparent KD of MS2 coat protein,input ligand: FMN 200 uM,39.1 nM
same,apparent KD of MS2 coat protein,input ligand: none,34.2 nM
"AUAAUGUAAGGAUAUCAGUCGACUAGCCUCGGCUAGUCGACUGAGAAGGUACAUGAGGAUCACCCAUGUGAUUA [E4/10-A2] (Eterna round: R97, puzzle: Exclusion 4)",apparent KD of MS2 coat protein,input ligand: FMN 200 uM,762 nM
same,apparent KD of MS2 coat protein,input ligand: none,191 nM
"CAAAACCGAGGAUAUACUUCGGAGAUAAAGGUAAGUCAAAGACUUGAGGAUCACCCAAGUAGAAGGCGGACGGA [Laeded] (Eterna round: R97, puzzle: Exclusion 2)",apparent KD of MS2 coat protein,input ligand: FMN 200 uM,95.5 nM
same,apparent KD of MS2 coat protein,input ligand: none,22.4 nM
"GGAAUGAGAGAGGAUAUGGGAGGGAGGACCGGACCAGAAGGCUCGACAUGAGGAUCACCCAUGUAGAGAUCCUC [AK-MS2ROC-r4-exclusion6-6.10] (Eterna round: R97, puzzle: Exclusion 6)",apparent KD of MS2 coat protein,input ligand: FMN 200 uM,260 nM
same,apparent KD of MS2 coat protein,input ligand: none,75.7 nM
CGGUGCUGAGGAUAUACAUGAGGAUCACCCAUGUGUUCCUGCUAGGUGACUGGCAAAUGUAGAAGGCGGUACUG [JL-ex3-3.37 Brourd mod] (puzzle: Exclusion 3),apparent KD of MS2 coat protein,[3],34.8 nM
same,apparent KD of MS2 coat protein,[2],120 nM
same,apparent KD of MS2 coat protein,[4],131 nM
"UUAAUUAGCUCGCUAGAUCCUCACAUGAGGAUCACCCAUGUGCAGGAUAUCAGCUCGAUUAGAGCUGAGAAGGGCACUGCGAGC [ExNG3/10-A1] (Eterna round: R96, puzzle: Exclusion NG 3)",apparent KD of MS2 coat protein,input ligand: FMN 200 uM,160 nM
same,apparent KD of MS2 coat protein,[1],89.5 nM
same,apparent KD of MS2 coat protein,input ligand: none,104 nM
"GAUUAUGCGAGCUUUAGGGACAUGAGGAUCACCCAUGUUCGUCUUAUUGGUCUGAGUACACUGACAUACCUAAAUCU [JMF 63] (puzzle: Sensor v3, turn-off variant 1)",apparent KD of MS2 coat protein,[3],13.3 nM
same,apparent KD of MS2 coat protein,[2],15.9 nM
same,apparent KD of MS2 coat protein,[4],12.8 nM
"CAAUAGCGAGGAUAUACAUGAGGAUCACCCAUGUGAUCCUUAGGCUGUUGAAGCCUAUGUAGAAGGCGCAAAUU [jl-ex3.4.57 ViennaUCT mod] (Eterna round: R97, puzzle: Exclusion 3)",apparent KD of MS2 coat protein,input ligand: FMN 200 uM,198 nM
same,apparent KD of MS2 coat protein,input ligand: none,138 nM
"GGUCAGACGGUAGGAUAUCCAUAUCGAGUGACCCUUUCAUAACAUGAGGAUCACCCAUGUCGGUGGGAGAAGGGCCGUACGGCG [salish99_ExNG02_R04_001] (Eterna round: R96, puzzle: Exclusion NG 2)",apparent KD of MS2 coat protein,input ligand: FMN 200 uM,146 nM
same,apparent KD of MS2 coat protein,[1],70.4 nM
same,apparent KD of MS2 coat protein,input ligand: none,63.2 nM
GUGUACGGAGGAUAUAUGUGGGCAGGCUGACCUGCAGCUUCACAUGAGGAUCACCCAUGUAGAAGGCUGUACAC [Mat - Exclusion 2 - Mod of Hyphema - D99] (puzzle: Exclusion 2),apparent KD of MS2 coat protein,[2],20.7 nM
"ACAUGAGGAUCACCCAUGUUUGGCUGGUUUUCUCCGGCUGUCGAGGAUAUAGUCCGGUAUCCGCGCUAGAAGGUGAGGGUUGGC [Aenatbe mod 4] (Eterna round: R96, puzzle: Exclusion NG 3)",apparent KD of MS2 coat protein,input ligand: FMN 200 uM,22.5 nM
same,apparent KD of MS2 coat protein,[1],14.2 nM
same,apparent KD of MS2 coat protein,input ligand: none,22.8 nM
"CGAAGUACGUAAGGAUAUACCGUGAGGACAACGGUAGAAGGUACAACAACAUGAGGAUCACCCAUGUGGACCUCUCGGCGUUGU [Eternabot solution 19] (Eterna round: R96, puzzle: Exclusion NG 1)",apparent KD of MS2 coat protein,[1],309 nM
"AUUAGAUGAGGAUAUACAUGGUUGCGGGUGCGGCAGGAUCUACAUGAGGAUCACCCAUGUAGAAGGCAUGUAUC [EX2 C.22] (Eterna round: R97, puzzle: Exclusion 2)",apparent KD of MS2 coat protein,input ligand: FMN 200 uM,16.3 nM
same,apparent KD of MS2 coat protein,input ligand: none,13.8 nM
"UGAUCUAGCGGAGGAUAUACAUGAGGAUCACCCAUGUAGAUAUCAUGACCGUAGUCGUGUAUCGUGUAGAAGGCCGCUAGAUCU [JL ENG2 3.69] (Eterna round: R96, puzzle: Exclusion NG 2)",apparent KD of MS2 coat protein,[1],12.7 nM
"ACAUGUCAUUGAGGAUAUUGCACACAUGAGGAUCACCCAUGUAUACGGAUGCUCUUCCGUGAGUUCGAGAAGGCGAUGUACAUU [Ex NG2 #90] (Eterna round: R96, puzzle: Exclusion NG 2)",apparent KD of MS2 coat protein,input ligand: FMN 200 uM,71.3 nM
same,apparent KD of MS2 coat protein,[1],38.6 nM
same,apparent KD of MS2 coat protein,input ligand: none,60.7 nM
CCGAAUAUGCAGGAUAUCGUAUAGGAAACUAUACGAGAAGGGUAAACAUGAGGAUCACCCAUGUUCCUUAACGG [Mat - Exclusion 6 - Eli Mod - D81] (puzzle: Exclusion 6),apparent KD of MS2 coat protein,[2],20.3 nM
"GAUUAACAUGAGGAUCACCCAUGUGAGGAUAUGGACUUGCUCACUUUCCGAUUCGAGUCUAGAAGGCGCAUCUU [1986#116] (Eterna round: R97, puzzle: Exclusion 1)",apparent KD of MS2 coat protein,input ligand: FMN 200 uM,30.6 nM
same,apparent KD of MS2 coat protein,input ligand: none,27.1 nM
"AGUAUGUGAGGAUAUUUUUCGUCCGGUAGGAUACUACAGAGAAAGAAGGCACAUGAGGAUCACCCAUGUGAGAC [Eternabot (L1) Solution 55] (Eterna round: R97, puzzle: Exclusion 4)",apparent KD of MS2 coat protein,input ligand: FMN 200 uM,48.3 nM
same,apparent KD of MS2 coat protein,input ligand: none,20.1 nM
"AAGAAUUAGUCAGGAUAUAGCGGCCAAGAACUACUAGAAGGGAUUAGACAUGAGGAUCACCCAUGUGAUCUUUUUGUAGGGACG [Eternabot solution 15] (Eterna round: R96, puzzle: Exclusion NG 1)",apparent KD of MS2 coat protein,input ligand: FMN 200 uM,32.6 nM
same,apparent KD of MS2 coat protein,[1],25.7 nM
same,apparent KD of MS2 coat protein,input ligand: none,41.2 nM
"AGUACUAUCACGAAAGUGAUAGUACAAAAAGCAAGUGAAACAUGAGGAUCACCCAUGUCCUCAUUUGCUCGUCUUAU [Identical to 94% Sensor v2, turnoff variant 2] (puzzle: Sensor v3, turn-off variant 2)",apparent KD of MS2 coat protein,[3],16.8 nM
same,apparent KD of MS2 coat protein,[2],476 nM
same,apparent KD of MS2 coat protein,[4],12.7 nM
"CUGCGUAGAGGAUAUACAUGAGGAUCACCCAUGUGCUAAAUGACUGCAUGCAAAUCGUGUAGAAGGUUGAAGGG [Eternabot (L2) Solution 85] (Eterna round: R97, puzzle: Exclusion 3)",apparent KD of MS2 coat protein,input ligand: FMN 200 uM,34.6 nM
same,apparent KD of MS2 coat protein,input ligand: none,40.4 nM
"CGAUGAGGAGUGAGGAUAUCGUGUUCGAAAGAACGUGAGAAGGCACAUGAGGAUCACCCAUGUGAUUCUUAUCG [Omei Ex4B A19] (Eterna round: R97, puzzle: Brourd's mod of Exclusion 4)",apparent KD of MS2 coat protein,input ligand: FMN 200 uM,77 nM
same,apparent KD of MS2 coat protein,input ligand: none,25.5 nM

# Source: the supplement of paper PMC9170038
